Measurements as given in patent US20040143095A1.
Where no end group is shown, it is not given here.

B1: Urocortin III (mouse) (peptide)
peptide: FTLSLDVPTNIMNILFNIDKAKNLRAKAAANAQLMAQI-NH2
B2: Urocortin II (human) (peptide, UniProt Q96RP3 72-109, looked up)
peptide: IVLSLDVPIGLLQILLEQARARAAREQATTNARILARV
B3: Urocortin III (human) (peptide)
peptide: FTLSLDVPTNIMNLLFNIAKAKNLRAQAAANAHLMAQI-NH2
B4: Urocortin II (mouse) (peptide, UniProt Q99ML8 73-110, looked up)
peptide: VILSLDVPIGLLRILLEQARYKAARNQAATNAQILAHV
B5: Urocortin II (mouse), Q99ML8 73-110 (peptide, UniProt Q99ML8 73-110, looked up)
peptide: B4 peptide

These binders were tested against rat CRF receptor type 2α (rat) (UniProt P47866) (assay: radioligand displacement ([125I-Tyr0,Glu1,Nle17]-sauvagine), CHO membranes).
Sequence of rat CRF receptor type 2α (rat) (P47866 20-411): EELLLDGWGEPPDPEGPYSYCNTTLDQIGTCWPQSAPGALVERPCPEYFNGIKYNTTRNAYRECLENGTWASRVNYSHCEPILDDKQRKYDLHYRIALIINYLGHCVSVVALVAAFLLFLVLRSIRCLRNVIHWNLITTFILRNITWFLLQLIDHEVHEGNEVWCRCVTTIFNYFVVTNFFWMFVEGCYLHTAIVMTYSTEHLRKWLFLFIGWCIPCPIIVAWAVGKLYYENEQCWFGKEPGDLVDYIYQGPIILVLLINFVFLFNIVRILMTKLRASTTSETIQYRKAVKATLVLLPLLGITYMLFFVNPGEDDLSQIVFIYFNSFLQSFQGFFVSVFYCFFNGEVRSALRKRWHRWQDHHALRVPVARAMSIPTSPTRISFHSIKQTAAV
B1 showed a Ki of 5 nM. Binder B2 has a Ki of 1.7 nM. B3 showed a Ki of 21.7 nM. Binder B4 has a Ki of 2.1 nM.

These binders were tested against mouse CRF receptor type 2β (mouse) (UniProt Q60748) in the same assay as above.
B1 showed a Ki of 1.8 nM. B2 showed a Ki of 0.5 nM. B3 gave a Ki of 13.5 nM. B4 gave a Ki of 0.66 nM.

These binders were tested against endogenous CRF-R2β of A7r5 rat aortic smooth muscle cells (rat), P47866 (assay: cell-based or functional assay).
Sequence of endogenous CRF-R2β of A7r5 rat aortic smooth muscle cells (rat), P47866 (P47866 20-411): as above
In the case of B1, the cAMP accumulation in A7r5 rat aortic smooth muscle cells, EC50 is reported as 3.7 nM. B3 gave a cAMP accumulation in A7r5 rat aortic smooth muscle cells, EC50 of 80.9 nM. B5 showed a cAMP accumulation in A7r5 rat aortic smooth muscle cells, EC50 of 0.18 nM.
